Experimental data reported in patent publication US20250027068A1.

Target: pooled human IgG (human)
Assay: cell-based or functional assay

Row | Binder | Enzyme Activity Endpoint Assay: Fab′2 [ng/µL] | Enzyme Activity Endpoint Assay: Fc [ng/µL] | Enzyme Activity Endpoint Assay: IgG [ng/µL] | Enzyme Activity Endpoint Assay: scIgG [ng/µL]
1 | VRT-18 (Fc fusion) QITSVWTKGVTPLTPEQFRYNNEDVIHAPYLAHQGWYDITKAFDGKDNLLCGAATAGNMLHWWFDQNKTEIEAYLSKHPEKQKIIFNNQELFDLKAAIDTKDSQTNSQLFNYFRDKAFPGLSARQLGVFPDLVLDMFINGYYLNVFKTQSTDVNRPYQDKDKRGGIFDAVFTRGVQTTLLTARHDLKNKGLNDISTIIKQELTEGRALALSHTYANVRISHVINLWGADFNAEGNLEAIYVTDSDANASIGMKKYFVGINAHGHVAISAKKIEGENIGAQVLGLFTLSSGKDIWQKLSDKTHTCPPCPAPEAAGAPSVFLFPPKPKDTLMISRTPEVTCVVVDVSHEDPEVKFNWYVDGVEVHNAKTKPREEQQNSTYRVVSVLTVLHQDWLNGKEYKCKVSNKALKAPIEKTISKAKGQPREPQVYTLPPSRDELTKNQVSLTCLVKGFYPSDIAVEWESNGQPENNYKTTPPVLDSDGSFFLYSKLTVDKSRWQQGNVFSCSVMHEALHNHYTQKSLSLSPG | 0 | 4 | 995 | 9
2 | VRT-22 (Fc fusion) QITSVWTKGVTPLTPEQFRYYNEDVIHAPYLAHQGWYDITKAFDGKDNLLCGAATAGNMLHWWFDQNKTEIEAYLSKHPEKQKIIFKNQELFDLKAAIDTKDSQTNSQLFNYFRDKAFPGLSARQLGVFPDLVLDMFINGYYLNVFKTQSTDVNRPYQDKDKRGGIFDAVFTRGVQTTLLTARHDLKNKGLNDISTIIKQELTEGRALALSHTYANVRISHVINLWGADFNAEGNLEAIYVTDSDTRASIGMKKYFVGINAHGHVAISAKKIEGENIGAQVLGLFTLSSGKDIWQKLSDKTHTCPPCPAPEAAGAPSVFLFPPKPKDTLMISRTPEVTCVVVDVSHEDPEVKFNWYVDGVEVHNAKTKPREEQQNSTYRVVSVLTVLHQDWLNGKEYKCKVSNKALKAPIEKTISKAKGQPREPQVYTLPPSRDELTKNQVSLTCLVKGFYPSDIAVEWESNGQPENNYKTTPPVLDSDGSFFLYSKLTVDKSRWQQGNVFSCSVMHEALHNHYTQKSLSLSPG | 0 | 31 | 1010 | 21
3 | VRT-17 (Fc fusion) VTSVWTKGVTPPAKFTQGEDVFHAPYVANQGWYDITKTFNGKDNLLCGAATAGNMLHWWFDQNKEKIEAYLKKHPDKQKIIFGDQELLDVRKVINTKGDQTNSELFNYFRDKAFPGLSARRIGVFPDLVLDMFINGYYLNVYKTQTTDVNRTYQEKDRRGGIFDAVFTRGVQSKLLTSRHDFKEKNLKEISDLIKKELTEGKALGLSHTYANVRINHVINLWGADFDSNGNLKAIYVTDSDTNASIGMKKYFVGVNSAGKVAISAKEIKEDNIGAQVLGLFTLSTGQDSWNQTNDKTHTCPPCPAPEAAGAPSVFLFPPKPKDTLMISRTPEVTCVVVDVSHEDPEVKFNWYVDGVEVHNAKTKPREEQQNSTYRVVSVLTVLHQDWLNGKEYKCKVSNKALKAPIEKTISKAKGQPREPQVYTLPPSRDELTKNQVSLTCLVKGFYPSDIAVEWESNGQPENNYKTTPPVLDSDGSFFLYSKLTVDKSRWQQGNVFSCSVMHEALHNHYTQKSLSLSPG | 0 | 5 | 1030 | 20
4 | VRT-21 (Fc fusion) VTSVWTKGVTPPAKFTQGEDVFHAPYVANQGWYDITKTFNRKDNLLCGAATAGNMLHWWFDQNKEKIEAYLKKHPDKQKIIFGDQELLDVRKVINTKGDQTNSELFNYFRDKAFPGLSARRIGVFPDLVLDMFINGYYLNVYKTQTTDVNRTYQEKDRRGGIFDAVFTRGVQSKLLTSRHDFKEKNLKEISDLIKKELTEGKALGLSHTYANVRINHVINLWGADFDSNGNLKAIYVTDSDTRASIGMKKYFVGVNAAGKVAISAKEIKEDNIGAQVLGLFTLSTGQDSWNQTNDKTHTCPPCPAPEAAGAPSVFLFPPKPKDTLMISRTPEVTCVVVDVSHEDPEVKFNWYVDGVEVHNAKTKPREEQQNSTYRVVSVLTVLHQDWLNGKEYKCKVSNKALKAPIEKTISKAKGQPREPQVYTLPPSRDELTKNQVSLTCLVKGFYPSDIAVEWESNGQPENNYKTTPPVLDSDGSFFLYSKLTVDKSRWQQGNVFSCSVMHEALHNHYTQKSLSLSPG | 0 | 6 | 949 | 11
5 | VRT-13 (Fc fusion) QITSVWTKGVTPPTPEQFRYNNEDVFHAPYTAHQGWYDITKTFDGKDNLLCGAATAGNMLHWWFDQNKTEIEAYLSKHPEKQKIIFNNQELFDLKAAIDTKDSQTNSALFNYFRDKAFPNLSARQLGVMPDLVLDMFINGYYLNVFKTQSTDVNRPYQDKDKRGGIFDAVFTRGDQTTLLTARHDLKNKTLNDISTIIKQELTEGRALALSHTYANVSISHVINLWGADFNAEGNLEAIYVTDSDSNASIGMKKYFVGVNASGKVAISAKKIEGENIGAQVLGLFTLSSGKDIWQKLSDKTHTCPPCPAPEAAGAPSVFLFPPKPKDTLMISRTPEVTCVVVDVSHEDPEVKFNWYVDGVEVHNAKTKPREEQQNSTYRVVSVLTVLHQDWLNGKEYKCKVSNKALKAPIEKTISKAKGQPREPQVYTLPPSRDELTKNQVSLTCLVKGFYPSDIAVEWESNGQPENNYKTTPPVLDSDGSFFLYSKLTVDKSRWQQGNVFSCSVMHEALHNHYTQKSLSLSPG | 0 | 97 | 814 | 42
6 | VRT-14 (Fc fusion) SQTEDSESLQRLRDIEDFQAEKKKQNVVYTKWLDGVDVKDHDFRKIVDGNIAYYATPLLNGRGFYDINKDFNRDSDKCAAAVAANMFHYWLDRNRDNVDRFLRQNPEKHGIIELPDGQLKLSDFLNTYESDDGYRDKSKLFDFISNNFNGPVWTDKLLDNYINGYAYNYKYGRTIEDPTKNTSKINFFKEVFNEKILTNNHSIRNQNEFSVLLSEALYTGKAIGLSYGPAGLRHSLGHIISVWGADLDADGNVVAIYVTDSDDKKLTIGDERVGLKRYKISTDDEGRLRLTAYEETHNTGGQIRGLWTLDTGKQAWADYFDKTEQTGTDQAEQDKTHTCPPCPAPEAAGAPSVFLFPPKPKDTLMISRTPEVTCVVVDVSHEDPEVKFNWYVDGVEVHNAKTKPREEQQNSTYRVVSVLTVLHQDWLNGKEYKCKVSNKALKAPIEKTISKAKGQPREPQVYTLPPSRDELTKNQVSLTCLVKGFYPSDIAVEWESNGQPENNYKTTPPVLDSDGSFFLYSKLTVDKSRWQQGNVFSCSVMHEALHNHYTQKSLSLSPG | 0 | 4 | 1020 | 22
7 | VRT-19 (Fc fusion) SQTEDSESLQRLRDIEDFQAEKKMQNVVYTKWLDGVDVKDHDFRKIVDGNIAYYATPLLNGRGFYDINKDFNRDNDKCAAAVAANMFHYWLDINRDNVDRFLRQNPEKHGIIELPDGQLKLSDFLNTYESDHGYRDKSKLFDFISNNFNGPVWTDKLLDNYINGYAYNYKYGRTIEDSTKNTSKINFFKEVFNEKILTNNHSIRNQNEFSVLLSEALYTGKAIGLSYGPAGLRHSLGHIISVWGADLDADGNVVAIYVTDSDDKKLTIGDERVGLKRYKISTDDENRLRLTAYEETHNTGGQIRGLWTLDTGKYAWADYFDKTEQTGTDQAEQDKTHTCPPCPAPEAAGAPSVFLFPPKPKDTLMISRTPEVTCVVVDVSHEDPEVKFNWYVDGVEVHNAKTKPREEQQNSTYRVVSVLTVLHQDWLNGKEYKCKVSNKALKAPIEKTISKAKGQPREPQVYTLPPSRDELTKNQVSLTCLVKGFYPSDIAVEWESNGQPENNYKTTPPVLDSDGSFFLYSKLTVDKSRWQQGNVFSCSVMHEALHNHYTQKSLSLSPG | 0 | 54 | 1250 | 33
8 | VRT-16 (Fc fusion) VTSVWTKGVTPPANFTQGEDVFHAPYVANQGWYDITKTFNGKDNLLCGAATAGNMLHWWFDQNKDQIKRYLEEHPEKQKINFNGEQLFDVKEAIDTKNHQLDSKLFEYFKEKAFPYLSTKHLGVFPDHVIDMFINGYRLSLTNHGPTPVKEGSKDKRGGIFDAVFTRGVQSKLLTSRHDFKEKNLKEISDLIKKELTEGKALGLSHTYANVRINHVINLWGADFDSNGNLKAIYVTDSDTNASIGMKKYFVGVNSAGKVAISAKEIKEDNIGAQVLGLFTLSTGQDSWNQTNDKTHTCPPCPAPEAAGAPSVFLFPPKPKDTLMISRTPEVTCVVVDVSHEDPEVKFNWYVDGVEVHNAKTKPREEQQNSTYRVVSVLTVLHQDWLNGKEYKCKVSNKALKAPIEKTISKAKGQPREPQVYTLPPSRDELTKNQVSLTCLVKGFYPSDIAVEWESNGQPENNYKTTPPVLDSDGSFFLYSKLTVDKSRWQQGNVFSCSVMHEALHNHYTQKSLSLSPG | 0 | 130 | 682 | 91
9 | VRT-20 (Fc fusion) VTSVWTKGVTPPANFTQGEDVFHAPYVANQGWYDITKTFNRKDNLLCGAATAGNMLHWWFDQNKDQIKRYLEEHPEKQKINFKGEQLFDVKEAIDTKNHQLDSKLFEYFKEKAFPYLSTKHLGVFPDHVIDMFINGYRLSLTNHGPTPVKEGSKDKRGGIFDAVFTRGVQSKLLTSRHDFKEKNLKEISDLIKKELTEGKALGLSHTYANVRINHVINLWGADFDSNGNLKAIYVTDSDTEASIGMKKYFVGVNKAGKVAISAKEIKEDNIGAQVLGLFTLSTGQDSWNQTNDKTHTCPPCPAPEAAGAPSVFLFPPKPKDTLMISRTPEVTCVVVDVSHEDPEVKFNWYVDGVEVHNAKTKPREEQQNSTYRVVSVLTVLHQDWLNGKEYKCKVSNKALKAPIEKTISKAKGQPREPQVYTLPPSRDELTKNQVSLTCLVKGFYPSDIAVEWESNGQPENNYKTTPPVLDSDGSFFLYSKLTVDKSRWQQGNVFSCSVMHEALHNHYTQKSLSLSPG | 0 | 5 | 981 | 12
